Assay results reported in article PMC2746243.

Biological target: mutant M9R α-tropomyosin_(slow) (human) (UniProt P06753)
Assay: far-Western, overlay or dot blot

Sequence of UniProt P06753 (P06753 whole entry M9R): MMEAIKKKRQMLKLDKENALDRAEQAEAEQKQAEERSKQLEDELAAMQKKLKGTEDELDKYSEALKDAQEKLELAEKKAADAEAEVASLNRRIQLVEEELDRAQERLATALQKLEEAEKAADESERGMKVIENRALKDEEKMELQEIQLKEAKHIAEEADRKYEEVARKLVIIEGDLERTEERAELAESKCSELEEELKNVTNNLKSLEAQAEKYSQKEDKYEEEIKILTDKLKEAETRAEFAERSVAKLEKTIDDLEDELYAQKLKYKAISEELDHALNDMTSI

Recombinant human Tmod1 protein (from UniProt P28289 1-359) (natural protein)
percent of the binding to wild-type α-tropomyosin (slow): 10%
